The numbers were not newly measured in article PMC6699087, which cites them from elsewhere.

This data set concerns the target Hsp90 (Homo sapiens) (UniProt P08238).
Chain of UniProt P08238 (P08238 2-724): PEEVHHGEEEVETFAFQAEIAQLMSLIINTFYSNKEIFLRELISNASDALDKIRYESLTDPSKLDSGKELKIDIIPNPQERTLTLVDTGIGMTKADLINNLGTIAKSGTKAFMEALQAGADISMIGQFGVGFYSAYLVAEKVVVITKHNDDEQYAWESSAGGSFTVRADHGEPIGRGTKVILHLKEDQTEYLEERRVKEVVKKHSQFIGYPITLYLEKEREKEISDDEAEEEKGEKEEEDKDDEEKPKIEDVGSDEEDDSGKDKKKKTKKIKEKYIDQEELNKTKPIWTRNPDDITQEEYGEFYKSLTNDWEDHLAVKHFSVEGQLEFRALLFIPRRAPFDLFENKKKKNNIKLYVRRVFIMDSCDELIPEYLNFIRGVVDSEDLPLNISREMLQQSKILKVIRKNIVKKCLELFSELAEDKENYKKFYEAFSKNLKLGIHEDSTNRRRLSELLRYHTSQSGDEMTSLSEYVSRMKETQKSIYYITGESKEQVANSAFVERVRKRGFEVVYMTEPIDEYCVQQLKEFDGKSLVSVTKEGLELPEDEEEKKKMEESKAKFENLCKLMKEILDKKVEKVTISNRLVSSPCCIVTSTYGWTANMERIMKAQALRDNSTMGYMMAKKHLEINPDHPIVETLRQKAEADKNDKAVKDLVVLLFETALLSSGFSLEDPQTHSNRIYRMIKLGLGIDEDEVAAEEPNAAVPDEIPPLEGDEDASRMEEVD

As for Aha1 (from UniProt O95433), the Kd is 500 nM.

The Kd is the constant that tells how readily two partners part at equilibrium.
